Reference: the domain aggregation screens of Martell et al. (2025)

Experiment: soluble fraction after stress (log2 fold change); higher = more stays soluble; pooled small domains, quantitative proteomics
Conditions: stress: pH 4
In short: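 Aggregation propensity here comes from the fold change in the soluble amount of each small protein domain after acid stress, measured in pooled custom libraries by high-throughput quantitative proteomics. The acid stress was pH 4. On the log2 scale, higher values mean more of the domain stayed soluble.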

| Sequence | soluble fraction (log2) |
| --- | --- |
| HMNQEFRMPNAIKGVELSEENKQQLTQGEKVFLEGMTSAKGSLFDAYVYIDQEKKTLAFDFPEK | -0.792 |
| HMFEDYNELDEYLETRFIPTYVLLKQRKNANGEIDHFPSIRLQHIMALKLSEAELEHVMNYLKEKNIRVG | -0.182 |
| HMSSQVFLGQKNSIAKYDLNENKPIWTKEIKGTPLILSTWKDMLLIQIQTWVSYTHMLVKQENGQTVWE | 0.282 |
| HMSGPFTELTPREREILSHLAEGQSNKVIARHLQISDGTVKLHVKAILRKLEVHSRVEAAVMAVEHGV | 0.0256 |
| HMGMDALIGRRVFVSEEILPGDTGGRMAVDGDSWRAISVGTASNIPAGTEVRIRGHQSLVLEVEP | -0.629 |
| HMLDKKKHLEQGRKIIEDQLAKYKIQPSFDTLKKLSAYYGLNNKEQLYAQVGMGFLELENLDEILQ | -0.347 |
| HMKITININIETLSHHIKQSGVPLGRLQESVPDYNEIVTGNKSPTYQQLEKISKLIRVPLGLLVIESPL | -0.451 |
| HMLETILQIGKDGVGENLVKQVNDALEARELIKGRVLDNNLELDARTAAQILAKATRSEVVQVIGTKFV | 0.0332 |
| HMNIGIVSLAAVPMRKEPSDRAEMVNQILFGETFDVLEEQEKWTLVQLHHDAYQGWIDRKQWDYASGIAD | -1.3 |
| HMLLTASNYFKETKGINFSELPEALQKGHSFVIKSTENGTNWNAYSTSQNIQRVIDAYFSKLDEYLEKNQ | -0.202 |
| HMVAMYLRVGISNGRRYLSIVQGYRDQVTKKVRHNTVKSLGYLDDLEKHYPDPIAHFKAVVEEMNKKQALE | 0.191 |
| HMKTPETSEYVVQAGDSLRRILTERYGAKEQDLPYLYRQFRLLNPKVSSLDNIHAGTKVRIPLVASVL | -0.0112 |
| HMRAFTPSEAQVAHARRVMEAFWQHQREGHGAFALDGKMVDAPIVKAAARVLARAGLQDPNHPIHLA | 0.0106 |
| HMNEWVSVEERLPTDERPVLAFIGYADTMNGFITTSYYFRFDPDPHWLGEGLIPVGLKTLFWMPLPAP | -0.0414 |
| HMGTYSKQDLLQLIGRYPDGIGKREINLAFSKGTKIRNLLNIELNELLNERLITLSQGGLYIKP | ≥ 0.43 |
| HMRQMSEELQSAKEALEDRRTQEKAVLLLMEHRNISNDEAHRLLRKLAMDQGKRLPEVARALVSMAGVL | -0.203 |
| HMPRELKVRDVSHQHAGHAGWREGGETHFEVDMKADVFAGTSRVAAHRMVNKVLANELASRVHALQLNLS | -0.308 |
| HMAPLATIHVSSLSQKPFYLYGTFEDRRGNHLFFLEQIMGENKSIPVAMPSSAINPKIHASLTPPKG | -0.0804 |
| HMNYTSEDIKLASELFFHLLNNRILPANDVLASQYYDNNEIREILENMAEEGGLRIFGTRENLHLVSNGE | -1.21 |
| HMRPSGTAGILRYLSSGAIRGIGATTAQRLVSEFGEKTLDVMENEPERVAMLKGISKSKAEDFSLQLKQS | 0.0932 |
| HMHIVQEGDSLYGIARQYRITVEELRSLNALETADVIVPYQKLYV | -1.14 |
| HMSLSDDIAQTLRQLGFDRDVSETLANDVLPAMPTRQDVIDLLGTLGIEKHVAADFANFVVLN | -1.08 |
| HMPPELSDEVMEEAMSYLKNQYLNHGVKLEDYPALNKLFVDEAFRSEVIRKTQSNYKISYQSAMASLD | -0.928 |
| HMAPGIGDSKYFSHIYEMKHIDTIIDNDKGDRLIEHFEIQDTPFIFTKHWTSAFGFSKRQQEIITDYLSYF | -0.0653 |
| HMRDTLSKQLLTEEMVLQFIREMREHDPGIGGEKLHAMYLGRFGRDYEYMVGRDKMEMIIAENNLNVR | -1.05 |
| HMEILPAYRDIKKEALLGNINAEFKYVNLLLEHNYIEQAFNIIEDMKTRVDDNPEFEELKSRVADAYLMY | -1.48 |

| Sequence | soluble fraction (log2) |
| --- | --- |
| HMSSPRAIYSAIQKAVGEDMILYREDVQIILDKLDADLLVDDILEKMELDGTLVRQRDGTWLLL | -1.01 |
| HMTDTDVLSSRLSALSSGRTSAVRLRDGVLSLVLDVGGLSIEARKAMTTAIESTARATPGVEAVRIAET | 0.278 |
| HMDWVAYGAELRRRRLLAGWSVAELSRRTNLSTSIIYQVEQARTRLRPSQLTLAKLAAALGMP | -0.0217 |
| HMFMMVAGHLQIKNEKYYMVLELRTEQGERKTKWIGTGLAVKGNKRRAEAMLEETRTKYLSPV | -0.177 |
| HMETVSFNPDIAVIPDYRHVVILGETTKTIANKYDIPVDILKAANPGLGNNVTKGDRLRVPDKTKLQ | -0.0151 |
| HMNTEFDVPDVVGKTLDEAEFVLKGSNLKRGLIMPVDDPSKAPGTIVRQNPEAGAGNKIRVGDVVDLWVVG | 0.187 |
| HMAFDDAHYKDMITSYLKKFKKGNRSEIENLIIPKLSEVLVEKQKKDKVKNLLQALRKDNQIRLKGKYWYL | 0.196 |
| HMNKEVDLPNFVGMTKENAQAQADKIKIKLEFEEEYSSDVEEGKIISQNPEYKENYKIKEKSTVSLKI | 0.0516 |
| HMLALVREQIERNVSNPTDEDIRKIRHDVMEVITRAGADAATVDIAIEIDSQKNILRAIATGATEL | -1 |
| HMHDLGEQIIEKLRASGGISTLTDKSDPDAIYRQFKVSKKKYKQALGTLYKSRRITLAPNQIKLA | 0.22 |
| HMNEIEIHINKLFGKISDSKRKQELMQEITQNLNEKVSDLVSQGQTREQAVKKAIEDFGDIDDLKDELDN | -0.0968 |
| HMSSEASALRGWLQTSQYQGSVTLFANALNVPLKTVEDWVYGRSKPSLQHWSQLYEATGLPEYQQ | 0.0888 |
| HMSNTVEDLIDDIGTVTKDSKDKIDAARKAYDGLTEDQKKLVPDSVLKTLTDAEAAYAKLTK | 0.191 |
| HMETKIKFQIQTLDELNIRKVADWDAKAITTVKKGQILDVVDTVAAKNGSTPMYRLESGLYITASPKYVKK | 0.22 |
| HMAQSTALVNLAQAEINKRGLTQTEVQARLSEEGINVNSISPAEYPKYQKQILSILDQMQKEKQLSKEV | 0.359 |
| HMNFTMERLYTKELTSEDIDEIKKELNSMGYTEGVEFNIIKGDKTSFIMAERQLKAKMLSHLSDLGLPRGA | 0.0335 |
| HMSVPVDEVLAALTQKLTDLRTQAMAAKDFSAVDALKAALTEAGVEVRMSKTGVELIAGPRVDAKKLGTL | -0.268 |
| HMKLIRLGKAAGELNVGMSTLAEFLQSKGHSVDPNPNTKLTPEQYALLRMEFAADQTLKKLTKQP | -0.117 |
| HMALHLPTTTINGRQYYYFKSKEKITVYGLSKRLGLTRQEIVEHNPSAVDGIKRGSTLYFPVDEFAD | -0.074 |
| HMSNKYYETILDWFKSQIMSGELKEGDTIPSERELATRFGVSRVPVREALRILEYIGIVSNTADGMTVQKV | -0.976 |
| HMYTVRDGDTVFGILNRFGVSLDELLSLNPELSNGLKAGMVLKIK | -1.13 |
| HMKEEDLPREYTDILGNSVHERLNIMIHDIIEHSQDKPEVAMSPEREEAMHGLRRWMFDHVYH | -0.307 |
| HMVSTGIMVVDGRGSVLQHNEAALRQLGVEVLTFESQVKEKLASEDFSVRETTAMLNGKKVRIIAFSDIR | -1.66 |
| HMIGEKLKEIREKTGMNKKEFAQYLGLKYTTYNNYETEAREPASDFLILISTKFDVSIDYLLGLQ | -0.389 |
| HMIINFDAIRLTTELNKYNRHKAIPNSFFDGTFTILDVRDLYDSLSPKVQKIADTLIEQYNVDVKQ | -1.22 |
| HMRERLPFGFAQSKKVVLLSTESDTPKVLSVNWPSLDLYAELKRVIGRAFLLEIVSEEEFQAQVSDAYQRD | -1.48 |

| Sequence | soluble fraction (log2) |
| --- | --- |
| HMGQYSTTLDKIENSLFGFTYSNEAENTRINRIENKVYGKTSTSQTSTRIAKLKKDLSVDEMG | -0.00491 |
| HMGSDQEAAMARQDRLSTLVDYVVERGSVHVDDIVADLGVSPATVRRDLDALAAQQLIIRTRGGATANHT | -0.552 |
| HMLSDHGLNDRQIMVIAGLMNGGTVTVRSIESQYGVSLNTARADVKMLVDAGLLTETGREVNMKVYSWSGK | -0.22 |
| HMFSPTKLKEKRESQGLSQSQLASSLGISRASYFNWESGKTKPNQNNLSKLSEILNVDPRYF | 0.0274 |
| HMAYVDWYENKQPTHEEAFKKLLGRIHPGAIVLLHSTSKTNGEILDELLTKWEEMGYRFGTLDELTGN | -1.14 |
| HMEPMLEIFDAKIDLADVLAVESGLVRLRGGAEVTSPRVDVDAGARLELDSGARLNVERLSY | -0.823 |
| HMYLELVTKEGGSFDEPDYWGRRKLAYEIAGKTEGNYVVVKYTAEPATSDELDRVLNLNESVIRTKILRK | -0.461 |
| HMESYWVVLRPMAAGTQIGANDLGYRSVALGAAAKNYLAASTNPIGSITRRRLVAGELLQGSSLTDDARA | 0.185 |
| HMATPEINNLGRLRNAINQSNVNWHQIIKRLQNEYPNNWRQILIAIDRHDLLFRYDVENYIKYG | -0.855 |
| HMSEPRYRQLATILAQEIRSNHSAGDQLPSEQALAKRFEVNRHTVRRAVDELVAAGMVTRHQGWGTQVV | 0.243 |
| HMDEYGEVQALQRAGQTSEALARADRHIAAHPNDPQMRFVKANLLSAGGRAGEAETLLVQLTRD | -0.176 |
| HMDAKNNPQVMAQIRAILTAKGLSEDEVKTRLKTKNIDVDKMTDQEIIAQRPAIEAIINEMEQEKKQKMG | 0.142 |
| HMNFSRQREIIYEQVRNFPVHPTAEEVYRALKNDNPNLSLGTVYRNLNQLSEAGMLLKIPIADGSDRFDGR | -0.56 |
| HMNYYDLLGIPKSATKQQIRKAYRTKAKEFHPDVNGPFNSHMHFLLLKQAYETLMDANMRHVYDMALIS | 0.215 |
| HMGVDIAEHDGQPAVSIRKGAAESVAQWVKDQGGTFPQEVEMTVQNVARAGGTPLVVARGRDVLGVIYLKD | -0.281 |
| HMKMPNGYGSITKLSGKRRKPWRVRKTAGWELDAKTQKLKQTYINIGYYETRADAMSALVSYNEDP | -0.151 |
| HMIEDMQQYIKEIRQMVSGRLDMTRNLEDEEIRDTIAELVAEESRKQYMTLTEKREVIEGVFNSMR | -0.687 |
| HMEQETVTVPDLVGKDVVAAQAELHEMGLSGKPDGTGTTVVSQFPVAGARVLKHTNVILYTED | 0.0839 |
| HMQTKMVYSDLVNSIKSEQVSSMLVSGNTVTVTLTNGDKAKVKIPSLDTLQADVGKEMNDQMDKGTLKQE | -0.123 |
| HMPELSITDADIIVAGGRGMGSAENFGLIRELAGLLGAAVGASRVVVDAEWVDQKHLIGQTGK | -0.507 |
| HMDIRVAHVDDDMSFGEAFAQARSQVGPGGVFEWHGKLYGTYTAEEWASMSPAERSQYQQAVFN | 0.105 |
| HMKVYIKDISDLSDKLKSLLIENDIDDSNKLFEVEDQVLLEIKGLGSKTIDKIKDIVTEYLKKNN | -0.38 |
| HMADLNQTDIDSITKSVGGVEQYKSLMDWAGKTLSQDAIDSFDDLVNTGNKGSIQLAVNGLVAQYQNDN | 0.121 |
| HMDPSDQLYTVPPSAEGLRLDLFLVQHVPHMTRALATQLTGAGQVRVNGRRAKKGDRLPSGAQVRLEQAP | -0.138 |
